# Source: patent US20230330251A1, “METHODS FOR TREATING CANCERS WITH ANTIBODY DRUG CONJUGATES (ADC) THAT BIND TO 191P4D12 PROTEINS” (AGENSYS, INC., priority 2020, published 2023)
# Columns and labels:
# [1] = tested on: subjects with previously treated locally advanced or metastatic urothelial cancer; assay: EV-301 phase 3 study: overall survival (OS), enfortumab vedotin vs chemotherapy; format: in vivo, human
# Description: Subjects will be stratified according to the following: Eastern Cooperative Oncology Group Performance Status (ECOG PS), regions of the world and liver metastasis.
# OS is the primary endpoint. OS is defined as the time from randomization to the date of death. Secondary endpoints include PFS1, ORR, DOR, DCR, safety and QOL/PRO.
# Subjects in Arm A will receive EV on Days 1, 8 and 15 of each 28-day cycle. […] Within the control arm, the overall proportion of subjects receiving vinflunine will be capped at approximately 35%. Subjects will continue to receive study treatment until radiological disease progression as determined per investigator assessment or other discontinuation criteria are met or upon study termination, or study completion, whichever occurs first. No on-study crossover will be allowed. This study will consist of 3 phases: screening, treatment and follow-up.
# The Full Analysis Set (FAS) will be used for the efficacy analysis on OS and PFS1. All subjects who are randomized will be included in the FAS. For time to event endpoints including OS and PFS1 log-rank test stratified by randomization stratification factors including liver metastasis, baseline ECOG PS and regions of the world at baseline will be used to compare the 2 treatment arms. The hazard ratio and corresponding 95% confidence interval from the stratified Cox proportional hazards regression model will also be presented. The median OS, PFS1 and DOR will be estimated using the Kaplan-Meier method and will be reported along with the corresponding 95% confidence interval by treatment arm.
# Efficacy analysis for OS and PFS was conducted on the FAS. The interpretation of results from statistical tests was based on the FAS. Efficacy analysis for response related endpoints, e.g., ORR and DCR was conducted on RES.
# OS was formally tested at both interim analysis and final analysis. At either interim or final analysis, the formal hypothesis tests on the selected secondary endpoints including PFS1, ORR and DCR, were performed hierarchically (per the order of PFS1->ORR->DCR) only when the OS analysis is rejected. The details about the significance levels at interim analysis and final analysis for each efficacy endpoints (OS, PFS1, ORR and DCR) is specified in SAP.
# The primary efficacy endpoint of OS was analyzed using the log-rank test stratified by ECOG PS (0 vs 1), regions of the world (Western EU, US or the rest of world) and liver metastasis (yes or no). Randomized treatment and the strata used for randomization was used for the analysis. In addition, the stratified Cox proportional hazard model was used to estimate the hazard ratio and the corresponding 95% confidence interval. The median OS was estimated using the Kaplan-Meier method and will be reported along with the corresponding 95% confidence interval by treatment arm.
# The primary analysis was performed using the FAS.
# Additional analyses such as unstratified log-rank test and OS analyses adjusting the crossover effect may be conducted, if appropriate. Details are specified in the SAP.
# [2] = tested on: patients with previously treated locally advanced or metastatic urothelial carcinoma (la/mUC) with poor prognostic factors; assay: EV-301 hard-to-treat subgroups: safety and tolerability; format: in vivo, human
# Method: Subgroup analyses were prespecified for the primary endpoint of OS and secondary endpoints of investigator-assessed progression-free survival (PFS) and overall response rate (ORR) per RECIST v1.1. Kaplan-Meier analyses compared OS and PFS between treatments for selected hard-to-treat subgroups as follows: age ≥65 years, presence of liver metastasis, primary upper tract disease, and checkpoint inhibitor (CPI) nonresponse. ORR and safety were also evaluated within subgroups. The Cox proportional hazards model was used to estimate hazard ratios. The Cochran-Mantel-Haenszel test was used to compare response and disease control rates between groups.
# [3] = Aged ≥65 Years, N = 190 EV, 188 SC
# [4] = Nonresponsive to Prior PD-1/L1 Inhibitor, N = 202 EV, 202 SC
# [5] = Presence of Liver Metastasis, N = 90 EV, 92 SC
# [6] = Primary Upper Tract Disease, N = 96 EV, 102 SC
substance,measurement,setting,value
enfortumab vedotin,"HR (95% CI), OS sensitivity analysis",[1]; Adjusting in chemotherapy arm based on the rank preserving structural failure time method,0.705 (0.516-0.853)
same,Median OS,[1]; All,12.88 mo
same,"OS, EV vs SC HR",[1]; All,0.702
same,"Overall survival (OS) Events, %",[1]; All,(44.5) %
same,"Overall survival (OS) Events, n/N",[1]; All,134/301
same,Median OS,"[1]; FAS, Kaplan-Meier",12.88 Months
same,"Deaths, %","[1]; FAS, interim analysis",(44.5%)
same,# of Deaths,"[1]; Full Analysis Set, data cutoff 15 Jul. 2020",134
same,"HR (95% CI), OS sensitivity analysis",[1]; Inverse probability of censoring weights method,0.630 (0.435-0.912)
same,reduction in risk of death,[1]; PADCEV vs chemotherapy,30%
same,"HR (95% CI), OS sensitivity analysis",[1]; Unstratified analysis,0.719 (0.572-0.903)
same,estimated percentage of patients alive at 12 months,[1]; in vivo,51.5%
same,overall survival (OS) compared with standard chemotherapy,[1]; in vivo,superior
same,primary endpoint of overall survival compared to chemotherapy,[1]; in vivo,met its primary endpoint of overall survival
same,risk of death lower with enfortumab vedotin than with chemotherapy,[1]; median follow-up 11.1 months,30%
same,"Grade ≥3 TRAE: Anemia, %",[2]; [3],2.6%
same,"Grade ≥3 TRAE: Decreased neutrophil count, %",[2]; [3],7.4%
same,"Grade ≥3 TRAE: Decreased white blood cell count, %",[2]; [3],2.1%
same,"Grade ≥3 TRAE: Fatigue, %",[2]; [3],7.9%
same,"Grade ≥3 TRAE: Febrile neutropenia, %",[2]; [3],1.1%
same,"Grade ≥3 TRAE: Maculopapular rash, %",[2]; [3],7.4%
same,"Grade ≥3 TRAE: Neutropenia, %",[2]; [3],3.7%
same,"Grade ≥3 TRAE: Anemia, %",[2]; [4],3.0%
same,"Grade ≥3 TRAE: Decreased neutrophil count, %",[2]; [4],5.0%
same,"Grade ≥3 TRAE: Decreased white blood cell count, %",[2]; [4],1.0%
same,"Grade ≥3 TRAE: Fatigue, %",[2]; [4],5.0%
same,"Grade ≥3 TRAE: Febrile neutropenia, %",[2]; [4],1.0%
same,"Grade ≥3 TRAE: Maculopapular rash, %",[2]; [4],9.4%
same,"Grade ≥3 TRAE: Neutropenia, %",[2]; [4],4.5%
same,"Grade ≥3 TRAE: Anemia, %",[2]; [5],3.3%
same,"Grade ≥3 TRAE: Decreased neutrophil count, %",[2]; [5],5.6%
same,"Grade ≥3 TRAE: Fatigue, %",[2]; [5],5.6%
same,"Grade ≥3 TRAE: Febrile neutropenia, %",[2]; [5],2.2%
same,"Grade ≥3 TRAE: Maculopapular rash, %",[2]; [5],8.9%
same,"Grade ≥3 TRAE: Neutropenia, %",[2]; [5],5.6%
same,"Grade ≥3 TRAE: Anemia, %",[2]; [6],6.3%
same,"Grade ≥3 TRAE: Decreased neutrophil count, %",[2]; [6],9.4%
same,"Grade ≥3 TRAE: Decreased white blood cell count, %",[2]; [6],1.0%
same,"Grade ≥3 TRAE: Fatigue, %",[2]; [6],9.4%
same,"Grade ≥3 TRAE: Febrile neutropenia, %",[2]; [6],2.1%
same,"Grade ≥3 TRAE: Maculopapular rash, %",[2]; [6],10.4%
same,"Grade ≥3 TRAE: Neutropenia, %",[2]; [6],6.3%
same,"grade ≥3 treatment-related AEs adjusted for treatment exposure, EV versus SC",[2]; across all four hard-to-treat subgroups,less frequently
same,overall rate of AE's,[2]; patients non-responsive to prior treatment with PD-1/L1 inhibitors,97.5%
same,overall rate of AE's,[2]; patients with liver metastasis,97.8%
same,overall rate of AE's,[2]; patients with primary upper tract disease,99.0%
same,overall rate of AE's,[2]; patients ≥65 years of age,97.4%
